From patent publication US20260226524A1, “GLUTAMINE SYNTHETASE MARKER FOR RECOMBINANT EXPRESSION” (priority 2023, published 2026)

Legend:
[1] = test system: Chinese Hamster Ovary CHO-K1 (CCL-61) host cell; assay: Bio-Layer Interferometry (Octet) analysis of denosumab expression in supernatants of cell pools selected with GS markers; type: cell-based; details: 50 μM MSX; for pools expressed detectable denosumab (>0.125 ug/mL): Day 20, among 300 seeded pools in 96-well plates, GS used as selectable marker; for median expression value of denosumab of positive pools: Day 20, positive pools (>0.125 ug/mL), Octet ProA biosensor
Experimental: Vector design: Nearly all selectable marker currently used in GS system is Cricetulus griseus-derived GS.
(§1) After random integration, GS expression in each individual cell was evaluated by monitoring UnaG level using flow cytometry. Denosumab here served as the secreted reporter for assessing titers using selectable glutamine synthetase markers from different species. The vectors differed from one another by the GS-coding sequences, which were derived from Chinese hamster (Cricetulus griseus), koala (Phascolarctos cinerecus), vesper bat (Pipistrellus kuhlii), gerbil (Meriones unguiculatus), ostrich (Struthio camelus australis), junglefowl (Gallus gallus), pigeon (Columbia Livia), and snake (Pseudonaja textilis), respectively.
(§2) Electroporation and cell screening: Expression vectors described above were first linearized by the restriction endonuclease Pvul (there was one Pvul site in the ampicillin resistant gene). Then linearized vectors were introduced into the host cell using cell electroporator (Lonza Nuleofector 2b). The host cell was derived from ATCC wild-type Chinese Hamster Ovary CHO-K1 (CCL-61) and adapted to serum-free suspension culture at Shanghai ZhenGe Biotech Co. Ltd. 24 hours post electroporation, cell pools were plated into culture flasks or 96-well plates (approximately 1, 200 cells/well, 300 wells per condition) in the absence of or presence of MSX (50 μM).

[2] = test system: Chinese Hamster Ovary CHO-K1 (CCL-61) host cell; assay: Flow cytometry analysis of GS expression via UnaG fluorescence in electroporated cell pools; type: cell-based; details: about 3 weeks post-seeding; for UnaG expression of cells (selection efficiency): MSX selection, FIGS. 3A-3B
Excerpt: Vector design: Nearly all selectable marker currently used in GS system is Cricetulus griseus-derived GS. To investigate whether the GS from other species further improve titer or screening efficiency, a set of vectors were designed as described below: • a sequence coding for an eel green fluorescent protein UnaG, a 2A self-cleaving peptide and a glutamine synthetase, placed under the control of the SV40 promoter; • two expression cassettes, in which the sequences coding for the heavy chain and light chain of a human anti-RANKL antibody denosumab were placed under the control of CMV promoters, respectively; • a sequence coding for a protein conferring resistance to ampicillin, for use in prokaryotic cells; and • a prokaryotic origin of replication.
as §1, with “The 2A self-cleaving peptide allowed relatively equal molar expression of the two products separated by it, namely, the green fluorescent protein UnaG and glutamine synthetase. After” for “After”
as §2
Flow cytometry analysis of GS expression: About 3 weeks post-seeding, cell pools electroporated with GS gene from indicated species were analyzed using Attune NxT flow cytometer (FIGS. 3A-3C). […] As shown, when the GS from Chinese Hamster was used as the selectable marker, most tested cells (>98%) remained UnaG “negative” in the presence of the MSX, indicating low selection efficiency.

B1: Chinese hamster GS: Cricetulus griseus glutamine synthetase, SEQ ID NO: 9 (nucleotide SEQ ID NO: 18), Uniprot P04773; traditional selectable marker (protein, listed as Cricetulus griseus)
chain: MATSASSHLNKGIKQMYMSLPQGEKVQAMYIWVDGTGEGLRCKTRTLDCEPKCVEELPEWNFDGSSTFQSESSNSDMYLSPVAMFRDPFRKEPNKLVFCEVFKYNQKPAETNLRHTCKRIMDMVSNQHPWFGMEQEYTLLGTDGHPFGWPSDGFPGPQGLYYCGVGADKAYRRDIMEAHYRACLYAGVKITGTYAEVKHAQWEFQIGPCEGIRMGDHLWVARFILHRVCKDFGVIATFDSKPIPGNWNGAGCHTNFSTKTMREENGLKHIKEAIEKLSKRHRYHIRAYDPKGGLDNARRLTGFHKTSNINDFSAGVADRSASIRIPRTVGQEKKGYFEARCPSANCDPFAVTEAIVRTCLLNETGDQPFQYKN
modifications: Hamster GS
Which results are given for B1?
pools expressed detectable denosumab (>0.125 ug/mL) [1]: 4.3%; median expression value of denosumab of positive pools [1]: 1.07 µg/mL; tested cells remaining UnaG negative ([2]; in the presence of the MSX (50 μM)): > 98%

B2: gerbil GS: Meriones unguiculatus glutamine synthetase, SEQ ID NO: 7 (nucleotide SEQ ID NO: 16), used as selectable marker (protein, listed as Meriones unguiculatus)
chain: MATSASSQLNKGIKQTYLALPQGEKVQAMYIWVDGTGEGLRCKTRTLDCEPKSVEELPEWNFDGSSTFQSEGSNSDMYLTPVAMFRDPFRKEPNKLVFCEVFKYNRKPAETNLRHSCKRIMEMVSNQRPWFGMEQEYTLMGTDGHPFGWPSNGFPGPQGPYYCGVGADKAYGRDIVEAHYRACLYAGVKIAGTNAEVMPAQWEFQIGPCEGVRMGDHLWVARFILHRVCEDFGVIATFDPKPIPGNWNGAGCHTNFSTKAMREENGLKFIEEAIEKLSKRHQYHIRAYDPKGGLDNARRLTGFHETSNINDFSAGVANRSASIRIPRTVGQEKKGYLEDRRPSANCDPYAVTEALVRTCLLNETGDEPFQYKN
modifications: Gerbil GS
What does the source list for B2?
pools expressed detectable denosumab (>0.125 ug/mL) [1]: 63.6%; median expression value of denosumab of positive pools [1]: 2.67 µg/mL; UnaG expression of cells (selection efficiency) [2]: significant amounts of cells showed positive UnaG expression

B3: junglefowl GS: Gallus gallus glutamine synthetase, SEQ ID NO: 6 (nucleotide SEQ ID NO: 15), used as selectable marker (protein, listed as Gallus gallus)
chain: MLRSLQCLLAYRVGSLPLRSWGHRLATTAHARTALASSAAMATSASSHLSKAIKHMYMKLPQGEKVQAMYIWIDGTGEHLRCKTRTLDHEPKSLEDLPEWNFDGSSTFQAEGSNSDMYLRPAAMFRDPFRKDPNKLVLCEVFKYNRQSADTNLRHTCRRIMDMVSNQHPWFGMEQEYTLLGTDGHPFGWPSNGFPGPQGPYYCGVGADKAYGRDIVEAHYRACLYAGVKIGGTNAEVMPAQWEFQVGPCEGIEMGDHLWIARFILHRVCEDFGVIVSFDPKPIPGNWNGAGCHTNFSTKNMREDGGLKHIEEAIEKLSKRHQYHIRAYDPKGGLDNARRLTGFHETSSIHEFSAGVANRGASIRIPRNVGHEKKGYFEDRRPSANCDPYAVTEALVRTCLLNETGDEPFEYKN
modifications: Junglefowl GS
B3 was tested. Which “pools expressed detectable denosumab (>0.125 ug/mL)” value (“pools … (>0.125 ug/mL)” below) [1] did it give?
Its value is 73.6%.

And the “median expression value of denosumab of positive pools” value (from here on “median expression value”) [1]?
The value was 2.51 µg/mL.

And the “UnaG expression of cells (selection efficiency)” value [2]?
Its value is “significant amounts of cells showed positive UnaG expression”.

B4: koala GS: Phascolarctos cinerecus glutamine synthetase, SEQ ID NO: 1 (nucleotide SEQ ID NO: 10), used as selectable marker (protein, listed as Phascolarctos cinereus)
chain: MATSASSHLNKNIKQMYMNLPQGNKVLAMYIWIDGTGEGLRCKTRTLDSEPKSIDDLPEWNFDGSSTYQSEGSNSDMYLVPAALFRDPFRKDPNKLVFCEVFKYNRKPAETNLRHTCKRIMDMVTNQKPWFGMEQEYTLMGTDGHPFGWPSNGFPGPQGPYYCGVGADKAYGRDIAEAHYRACLYAGVKIVGTNAEAMPSQWEFQIGPCEGIEMGDHLWVARFILHRVCEDFGMIVTFDPKPIPGNWNGAGCHTNFSTKAMREENGLKFIEEAIERLSKRHKYHIRAYDPKGGLDNARRLTGFNETSNINEFSAGVANRGASIRIPRMVGQDKKGYFEDRRPSANCDPYAVTEALIRTCLLNETGEEPFQYKN
modifications: Koala GS
For B4, which “pools … (>0.125 ug/mL)” value [1] is on record?
The value was 85.6%.

And the “median expression value” value [1]?
The value was 2.86 µg/mL.

What about the “UnaG expression of cells (selection efficiency)” value [2] of the same molecule?
Its value is “significant amounts of cells showed positive UnaG expression”.

B5: snake GS: Pseudonaja textilis glutamine synthetase, SEQ ID NO: 3 (nucleotide SEQ ID NO: 12), used as selectable marker (protein, listed as Pseudonaja textilis)
chain: MATSASSHLSKTIKQMYMKLPQGDKVQAMYIWIDGTGEFLRCKTRTLEREPKNVEDLPEWNFDGSSTFQSEGSNSDMYLVPSAMFRDPFRKDPNKLVLCEVLKYNRKPAETNLRSTCKRIMDMVSNQNPWFGMEQEYTLLGTDGHPFGWPSNGFPGPQGPYYCGVGADKAYGRDVVEAHYRACLYAGVNIGGTNAEVMPAQWEFQVGPCEGVDMGDHLWIARFILHRVCEDFGVIVSFDPKPIPGNWNGAGCHTNFSTKNMREEGGLKQIEDAIEKLGKRHQYHIRAYDPKGGLDNARRLTGFHETSNIHEFSAGVANRGASIRIPRNVGQVKKGYFEDRRPSANCDPYAVTEALVRTCLLNETGDEPFEYKN
modifications: Snake GS
What does the source list for B5?
pools expressed detectable denosumab (>0.125 ug/mL) [1]: 38.0%; median expression value of denosumab of positive pools [1]: 1.75 µg/mL; UnaG expression of cells (selection efficiency) [2]: significant amounts of cells showed positive UnaG expression

B6: ostrich GS: Struthio camelus australis glutamine synthetase, SEQ ID NO: 2 (nucleotide SEQ ID NO: 11), used as selectable marker (protein, listed as Struthio camelus)
chain: MATSASSHLSKAIKHMYMKLPQGEKVQAMYIWIDGTGEHLRCKTRTLDHEPKSLEDLPEWNFDGSSTFQAEGSNSDMYLRPAAMFRDPFRKDPNKLVLCEVFKYNRQSAETNLRHTCRRIMDMVSNQHPWFGMEQEYTLLGTDGHPFGWPSNGFPGPQGPYYCGVGADKAYGRDIVEAHYRACLYAGVKIGGTNAEVMPAQWEFQVGPCEGIEMGDHLWIARFILHRVCEDFGVIVSFDPKPIPGNWNGAGCHTNFSTKSMREDGGLKHIEEAIEKLGKRHQYHIRAYDPKGGLDNARRLTGFHETSSIHEFSAGVANRGASIRIPRNVGHEKKGYFEDRRPSANCDPYAVTEALVRTCLLNETGDEPFEYKN
modifications: OstrichGS
How did the “pools … (>0.125 ug/mL)” value [1] turn out when B6 was run?
Its value is 65.3%.

What about the “median expression value” value [1] of the same molecule?
The value was 2.57 µg/mL.

And the “UnaG expression of cells (selection efficiency)” value [2]?
Its value is “significant amounts of cells showed positive UnaG expression”.

B7: pigeon GS: Columbia Livia glutamine synthetase, SEQ ID NO: 5 (nucleotide SEQ ID NO: 14), used as selectable marker (protein, listed as Columbia livia)
chain: MALLRSVQCLLTYRASSYRLPALGGFVNLLQHSGGDRSATAACTRNPLVRSAAMATSASSHLSKAIKHMYMKLPQGDKVQAMYIWIDGTGEHLRCKTRTLDHEPKSLEDLPEWNFDGSSTFQSEGSNSDMYLRPAAMFRDPFRKDPNKLVLCEVFKYNRQSAETNLRHTCRRIMDMVSNQHPWFGMEQEYTLLGTDGHPFGWPSNGFPGPQGPYYCGVGADKAYGRDIVEAHYRACLYAGVKIGGTNAEVMPAQWEFQVGPCEGIEMGDHLWIARFILHRVCEDFGVIVSFDPKPIPGNWNGAGCHTNFSTKEMREDGGLKHIEEAIEKLSKRHQYHIRAYDPKGGLDNARRLTGFHETSNIHEFSAGVANRGASIRIPRSVGHEKRGYFEDRRPSANCDPYAVTEALVRTCLLNETGDEPFEYKN
modifications: pigeon GS
With B7 as the molecule, how does the “pools … (>0.125 ug/mL)” value [1] read?
Its value is 52.0%.

And the “median expression value” value [1]?
The value was 2.27 µg/mL.

And the “UnaG expression of cells (selection efficiency)” value [2]?
The value was “significant amounts of cells showed positive UnaG expression”.
